# Measurements published in PMC12700808.
# What was measured:
# [1] = target: FG repeat domain of 669 residues with non-charged spacers and 36 FSFG motifs; assay: partitioning into an FG phase (confocal laser scanning microscopy); as a1 but FG phases assembled from the SLFG or the FSFG repeat domain (stocks in 4 M guanidinium hydrochloride, diluted 50-fold)
# [2] = target: Nup98-type FG domain comprising 52 perfect 12-mer GLFG repeat units (prf.GLFG52x12); assay: FG phase partitioning assay
# [3] = target: Nup98-type FG domain comprising 52 perfect 12-mer GLFG repeat units (prf.GLFG52x12); assay: FG phase partitioning assay; remark: listed apart in the source
# [4] = target: Nup98-type FG domain comprising 52 perfect 12-mer GLFG repeat units (prf.GLFG52x12); assay: FG phase partitioning assay; remark: listed apart in the source
# [5] = fluorescence intensity at rim of FG particles
# [6] = fluorescence intensity in center of FG particles
# [7] = signal in center of FG particles
substance,measurement,setting,value
"20-nm pentamer-only spheres of CA A92E (CA P1A+G60A+G61P background), EGFP-labelled (complex)",fold reduction of partitioning against WT,[1],< 100 fold
"20-nm pentamer-only spheres of CA G94D (CA P1A+G60A+G61P background), EGFP-labelled (complex)",fold reduction of partitioning against WT,[1],< 100 fold
"20-nm pentamer-only spheres of CA H87Q (CA P1A+G60A+G61P background), EGFP-labelled (complex)",fold reduction of partitioning against WT,[1],< 100 fold
"20-nm pentamer-only spheres of CA Q9E (CA P1A+G60A+G61P background), EGFP-labelled (complex)",fold reduction of partitioning against WT,[1],< 100 fold
"CLPs of CA G89V, filled with sinGFP4a (complex)",fold partitioning against wild type,[1],4 fold
"conical CLPs (capsid-like particles) of wild-type CA (CA-P1A), filled with sinGFP4a Q9E",response,[2]; [5],24000
same,response,[2]; [6],3500
same,percent of parent,[2]; signal at rim of FG particles,120%
same,percent of parent,[2]; [7],14%
same,percent of parent,[3]; signal at rim of FG particles,89%
same,percent of parent,[3]; [7],13%
same,response,[4]; [5],26000
same,response,[4]; [6],3400
"conical CLPs (capsid-like particles) of wild-type CA (CA-P1A), filled with sinGFP4a R97K",percent of parent,[2]; signal at rim of FG particles,90%
same,percent of parent,[2]; [7],20%
same,response,[4]; [5],20000
same,response,[4]; [6],5000
